Data reported in patent US20240158489A1.

Key:
Details in all cases: bispecific antibody
huANG2 [1] = target: huANG2 (UniProt O15123); assay: -; FIG. 2A
huANG2 [2] = target: huANG2 (UniProt O15123); assay: -; FIG. 2B
huVEGF = huVEGF (UniProt P15692); assay: -; FIG. 2B
Chain of huVEGF (P15692 other isoform, or with tags, fused parts or gaps): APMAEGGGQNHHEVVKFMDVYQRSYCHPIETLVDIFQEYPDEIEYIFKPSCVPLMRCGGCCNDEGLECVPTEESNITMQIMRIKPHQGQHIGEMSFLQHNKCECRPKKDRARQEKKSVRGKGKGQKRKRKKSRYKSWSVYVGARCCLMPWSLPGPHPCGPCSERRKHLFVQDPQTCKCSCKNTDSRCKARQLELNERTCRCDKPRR

Chain of huANG2 (O15123 19-496): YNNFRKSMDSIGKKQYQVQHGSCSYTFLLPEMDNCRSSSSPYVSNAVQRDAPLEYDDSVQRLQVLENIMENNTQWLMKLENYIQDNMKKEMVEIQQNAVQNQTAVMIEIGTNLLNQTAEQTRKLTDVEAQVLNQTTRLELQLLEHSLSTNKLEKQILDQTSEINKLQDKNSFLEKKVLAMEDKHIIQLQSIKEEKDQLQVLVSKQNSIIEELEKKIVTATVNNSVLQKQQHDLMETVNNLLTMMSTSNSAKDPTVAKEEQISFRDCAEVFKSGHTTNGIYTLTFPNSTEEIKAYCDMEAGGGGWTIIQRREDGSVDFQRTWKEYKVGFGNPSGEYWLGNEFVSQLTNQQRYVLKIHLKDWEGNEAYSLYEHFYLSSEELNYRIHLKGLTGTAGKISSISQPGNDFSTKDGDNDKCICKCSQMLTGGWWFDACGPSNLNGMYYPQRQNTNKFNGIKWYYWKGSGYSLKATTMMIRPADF

Work on “anti-ANG-2×VEGF bispecific antibody ABP201” yielded a Kd (huANG2 [1]) of 32.1 nM, a Kd (huANG2 [2]) of 32.1 nM and a Kd (huVEGF) of 1.37 nM.
